Paper PMC4161438 (PLoS Pathogens, 2014)

How the values were obtained:
[1] = biological target: T1, elastase (Homo sapiens, UniProt P08246); conditions: pathologic conditions associated with neutrophil dysfunction; ref [22]; cited from earlier work
T1 construct: purchased Elastin Products Company, Inc. (Owensville, MO, USA)
T1 sequence (P08246 30-267): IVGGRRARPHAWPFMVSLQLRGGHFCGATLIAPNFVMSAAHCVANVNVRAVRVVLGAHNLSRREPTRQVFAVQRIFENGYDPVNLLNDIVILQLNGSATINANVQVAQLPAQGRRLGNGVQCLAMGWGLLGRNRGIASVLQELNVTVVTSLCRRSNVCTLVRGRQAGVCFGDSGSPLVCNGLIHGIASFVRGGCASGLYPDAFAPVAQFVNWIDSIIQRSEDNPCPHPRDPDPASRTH
From the text: Neutrophils also release granule contents containing enzymes such as elastase, proteinase-3, and cathepsin G. Elastase, a particularly inflammatory enzyme, interferes with thrombomodulin function, and cleaves TF pathway inhibitor (TFPI), the physiological inhibitor of the extrinsic pathway. […] Elastase also induces proteinase-activated receptor activation, contributes to cytokine production and processing, inactivates metalloprotease inhibitors, deg ...

[2] = test system: inflamed microvessels; set-up: method as in PMID 8400269; conditions: intravital microscopy of inflamed microvessels; ref [50]; cited from earlier work
[3] = test system: neutrophil; conditions: migration induced by PAF, fMLP or IL-8; ref [49]–[51]; cited from earlier work
From the text: Once released, serine protease may bind to the cell surface and remains relatively inaccessible to inhibitors, in contrast to soluble enzymes, [48]. Elastase and other serine proteases reportedly modulate several functions of neutrophils, including chemokine activation and degradation, cell recruitment, receptor activation, activation of lymphocytes, NET formation, and cleavage of adhesion molecules, apoptotic proteins, and anticoagulants. Assay ...

[4] = test system: neutrophils; assay: NETs formation; format: cell-based, human; conditions: PMA 5 nM, 3 h, no inhibitor
Protocol: Left panel, non-activated neutrophil (no PMA). Formation of NETs was visualized under confocal microscopy, using antibody against citrullinated histone. Representative experiment is shown (4 different donors). B) Quantification. Performed as described in Methods.
(§1) Whole blood (5 mL collected in 0.5 mL of 3.2% sodium citrate) from healthy donors was diluted in an equal volume of PBS, layered over 5 mL of HISTOPAQUE solution (10771, Sigma Aldrich), and centrifuged for 40 min, at 400×g, at room temperature. The lower interphase having granulocytes was collected and transferred to a 15-ml Falcon tube and resuspended in 10 ml ammonium chloride lysis buffer (1.7 M NH4Cl, […], 1 mM EDTA) to lyse red blood cells. Lysis was carried out twice followed by centrifugation for 10 min at 400×g. […]
Cells were fixed with 500 µl of 4% paraformaldehyde (final concentrations) for 10 min, washed 3 times with PBS and incubated for 10 min with blocking solution (PBS, 10%FBS, 5 mg/ml BSA). […] NETs were quantified according to Farley et al. Briefly, NETs were identified on digitalized images as Hoechst-positive fibrils emanating from cells with an overall length at least twice as long as the cell diameter and were counted for at least two fields of view per variable. Results were expressed as the percentage of NETs/total number of granulocytes.

[5] = test system: neutrophils; assay: Neutrophil-induced coagulation; format: cell-based, human; conditions: neutrophils with PMA 50 nM, 3 h; 370 sec without PMA
Protocol: (§2) A) Platelet aggregation. Washed human platelets were stimulated with elastase only (500 nM, left panel), or cathepsin G only (110 nM, middle tracing), or elastase followed by cathepsin G (right tracing). […] Aggregation response was monitored by turbidimetry using a Lumi-Aggregometer. D) TFPI cleavage. […] After 2 h, reactions were stopped by addition of LDS loading buffer (under reducing conditions, 10 mM DTT), boiled for 5 min, and loaded in 4–12% Nu-PAGE gel. Gels were Coomassie Blue-stained. E) Neutrophil-induced coagulation. […] Fifty µl of this suspension was added to 50 µl of plasma, and reactions were started by addition of CaCl2 (12.5 mM, final concentration)(*, p<0.05).
as §1, with “400×g. Neutrophils were washed with PBS and resuspended at 1×10^6 cells/mL in high glucose DMEM (GIBCO). Neutrophils were kept on ice.” for “400×g.”

[6] = test system: bacterial strains; assay: Minimum inhibitory concentration (MIC), control over all strains; format: cell-based; conditions: ciprofloxacin quality control, 1024-0 ng/ml, each strain; not shown
[7] = test system: normal human plasma; assay: PT; format: biochemical; conditions: heparin control 100 µg/ml; not shown
Protocol: (§3) aPTT and PT were evaluated on a STart 4 stago coagulometer (Diagnostica Stago, Parsippany, NJ, USA). Freeze-dried, citrated, normal human plasma was resuspended in ultra-pure water. […] Then, 50 µl of pre-warmed aPTT reagent (STA PTT; Diagnostica Stago, Asnières sur Seine, France) was added and incubated for an additional 2 min. CaCl2 (50 µl at 25 mM) was added to start reactions. […] Then, 100 µl of the PT reagent (NEOplastine CI plus; Diagnostica Stago) was added. Time for clot formation was recorded in duplicate.

[8] = test system: normal human plasma; assay: aPTT; format: biochemical; conditions: heparin control 10 µg/ml; not shown
Protocol: as §3

[9] = test system: human neutrophil elastase; assay: TFPI cleavage by elastase (SDS/PAGE); format: biochemical; conditions: elastase 0.8 µg/ml, TFPI 1 µg, 2 h at RT, no inhibitor
Protocol: as §2
After 2 h at RT, reactions were stopped by addition of Laemmli buffer (supplemented with dithiothreitol) and boiled for 5 min. Proteins were separated by 4% to 12% NuPAGE (MES buffer); gels were stained with Coomassie Blue R-250 and destained with 40% methanol. See Blue molecular weight (mol. wt.) markers were used (Invitrogen).

[10] = test system: washed human platelets; assay: Platelet aggregation, elastase followed by cathepsin G; format: cell-based; conditions: elastase 500 nM, no inhibitor
Protocol: as §2
(§4) Platelet-rich plasma was obtained by plateletpheresis from medication-free platelet donors at the Department of Transfusion Medicine (NIH blood bank). Washing of platelets and platelet aggregation were performed in a Lumi-aggregometer (Chronol-Log, Haverstown, MD, USA) as described, [87].

[11] = test system: monocyte-like cells; set-up: method as in PMID 16352738; conditions: internalized by monocyte-like cells, ref [57], cited from earlier work
[12] = test system: washed human platelets; assay: Platelet aggregation, cathepsin G-induced; format: cell-based; conditions: low dose cathepsin G 110 nM, no inhibitor
Protocol: as §2, §4

[13] = test system: NETs formation; set-up: method as in 2 sources, one per row (each row's own in cited_ref): ref [38], [55] = [38]; PMID 20974816; doi:10.1083/jcb.201006052; 38 Papayannopoulos V , Metzler KD , Hakkim A , Zychlinsky A ( 2010 ) Neutrophil elastase and myeloperoxidase regulate the formation of neutrophil extracellular traps . J Cell Biol 191 : 677 – 691 . 20 || [55]; PMID 23635526; doi:10.1159/000348676; 55 Braian C , Hogea V , Stendahl O ( 2013 ) Mycobacterium tuberculosis- induced neutrophil extracellular traps activate human macrophages . J Innate Immun 5 : 591 – 602 . 23635526 10.1159/000348676 PM ||| ref [56] = [56]; PMID 23002442; doi:10.4049/jimmunol.1201167; 56 Farley K , Stolley JM , Zhao P , Cooley J , Remold-O'Donnell E ( 2012 ) A serpinB1 regulatory mechanism is essential for restricting neutrophil extracellular trap generation . J Immunol 189 : 4574; conditions: exogenously added, internalized, translocates into nucleus; ref [56]; cited from earlier work
[14] = biological target: T2, neutrophil elastase (Homo sapiens, UniProt P08246); assay: enzyme inhibition assay (chromogenic substrate, Cheng-Prusoff)
T2 chain: T1 sequence (P08246 30-267)

[15] = biological target: T2, neutrophil elastase; assay: SPR

Q: With Cc1c(-c2ccnn2C)cc(C(=O)NCc2ccc(S(C)(=O)=O)cn2)c(=O)n1-c1cccc(C(F)(F)F)c1 [AZD9668] as the molecule, how does the clinical trial results [1] read?
A: Its clinical trial results is “mixed results”.

Q: For CO[C@H]1C(=O)N2C(C(=O)N3CCC[C@H]3C(=O)O)=C(COC(C)=O)CS(=O)(=O)[C@H]12 [L658758, reference compound], which neutrophil transmigration [2] is on record?
A: The neutrophil transmigration was “inhibition of neutrophil transmigration”.

Q: And the chemotactic neutrophil functions [3]?
A: Its chemotactic neutrophil functions is “blocks chemotactic neutrophil functions”.

Q: Which “induction of NETs” value [4] does the source give for CCCCCCCCCCCCCC(=O)O[C@@H]1[C@@H](C)[C@@]2(O)[C@@H](C=C(CO)C[C@]3(O)C(=O)C(C)=C[C@@H]23)[C@@H]2C(C)(C)[C@]12OC(C)=O [PMA, Phorbol 12-myristate 13-acetate, reference compound] here?
A: Its value is “induces a strong response”.

Q: And the clotting time [5]?
A: Its clotting time is 250 s.

Q: For O=C(O)c1cn(C2CC2)c2cc(N3CCNCC3)c(F)cc2c1=O [ciprofloxacin], which MIC [6] is on record?
A: Its MIC is < 1 µg/mL.

Q: For CC(C)(C)C(=O)Oc1ccc(S(=O)(=O)Nc2ccccc2C(=O)NCC(=O)O)cc1 [sivelestat], which clinical trial results [1] is on record?
A: The clinical trial results was “mixed results”.

Q: Which PT [7] does the source give for heparin here?
A: The PT was “prolonged”.

Q: And the aPTT [8]?
A: Its aPTT is “prolonged”.

B1: elastase: neutrophil elastase, enzyme used as stimulus (protein, UniProt P08246 30-267, looked up)
Neutrophil elastase: T1 sequence (P08246 30-267)
Q: What does the source list for B1?
A: TFPI cleavage by elastase [9]: cleaves TFPI; shape change or aggregation by elastase only [10]: does not promote shape change or aggregation

B2: secretory leukocyte proteinase inhibitor (protein, UniProt P03973 26-132, looked up)
Antileukoproteinase: SGKSFKAGVCPPKKSAQCLRYKKPECQSDWQCPGKKRCCPDTCGIKCLDPVDTPNPTRRKPGKCPVTYGQCLMLNPPNFCEMDGQCKRDLKCCMGMCGKSCVSPVKA
Q: Which results are given for B2?
A: p65 binding ([11]; binds NF-κB binding sites): inhibit p65 binding; TNF-α and IL-8 generation [11]: promote inhibition of TNF-α and IL-8 generation; chemotactic neutrophil functions [3]: blocks chemotactic neutrophil functions

B3: cathepsin G: neutrophil protease used as platelet agonist (protein, UniProt P08311 21-244, looked up)
Cathepsin G: IIGGRESRPHSRPYMAYLQIQSPAGQSRCGGFLVREDFVLTAAHCWGSNINVTLGAHNIQRRENTQQHITARRAIRHPQYNQRTIQNDIMLLQLSRRVRRNRNVNPVALPRAQEGLRPGTLCTVAGWGRVSMRRGTDTLREVQLRVQRDRQCLRIFGSYDPRRQICVGDRRERKAAFKGDSGGPLLCNNVAHGIVSYGKSSGVPPEVFTRVSSFLPWIRTTMRS
Q: Which “platelet activation by cathepsin G only” value [12] does the source give for B3 here?
A: Its value is “activate platelets”.

B4: Eglin C: pharmacologic inhibitor of elastase (protein, UniProt P01051 1-70, looked up)
Eglin C: TEFGSELKSFPEVVGKTVDQAREYFTLHYPQYDVYFLPEGSPVTLDLRYNRVRVFYNPGTNVVNHVPHVG
Q: Which results are given for B4?
A: neutrophil transmigration [2]: inhibition of neutrophil transmigration; chemotactic neutrophil functions [3]: blocks chemotactic neutrophil functions

B5: serpin B1: exogenously added elastase inhibitor (protein, UniProt P30740 1-379, looked up)
Leukocyte elastase inhibitor: MEQLSSANTRFALDLFLALSENNPAGNIFISPFSISSAMAMVFLGTRGNTAAQLSKTFHFNTVEEVHSRFQSLNADINKRGASYILKLANRLYGEKTYNFLPEFLVSTQKTYGADLASVDFQHASEDARKTINQWVKGQTEGKIPELLASGMVDNMTKLVLVNAIYFKGNWKDKFMKEATTNAPFRLNKKDRKTVKMMYQKKKFAYGYIEDLKCRVLELPYQGEELSMVILLPDDIEDESTGLKKIEEQLTLEKLHEWTKPENLDFIEVNVSLPRFKLEESYTLNSDLARLGVQDLFNSSKADLSGMSGARDIFISKIVHKSFVEVNEEGTEAAAATAGIATFCMLMPEENFTADHPFLFFIRHNSSGSILFLGRFSSP
Q: With B5 as the molecule, how does the NETs formation [13] read?
A: Its NETs formation is “inhibits NETs formation”.

B6: Agaphelin 1-58 (protein)
chain: DINSEMATCACQLIYRPVCASNNESYSNECVLKCASETPTGRSIGLHKVKDGNCNGEF
Q: For B6, which Ki [14] is on record?
A: The Ki was 9.22 nM.

Q: What about the Kd [15] of the same molecule?
A: Its Kd is 17.4 nM.
